{
  "source": "paper PMC3950513",
  "origin": "cited, not measured here",
  "target": "MukB (Escherichia coli) (UniProt P22523)",
  "sequence (P22523 whole entry)": "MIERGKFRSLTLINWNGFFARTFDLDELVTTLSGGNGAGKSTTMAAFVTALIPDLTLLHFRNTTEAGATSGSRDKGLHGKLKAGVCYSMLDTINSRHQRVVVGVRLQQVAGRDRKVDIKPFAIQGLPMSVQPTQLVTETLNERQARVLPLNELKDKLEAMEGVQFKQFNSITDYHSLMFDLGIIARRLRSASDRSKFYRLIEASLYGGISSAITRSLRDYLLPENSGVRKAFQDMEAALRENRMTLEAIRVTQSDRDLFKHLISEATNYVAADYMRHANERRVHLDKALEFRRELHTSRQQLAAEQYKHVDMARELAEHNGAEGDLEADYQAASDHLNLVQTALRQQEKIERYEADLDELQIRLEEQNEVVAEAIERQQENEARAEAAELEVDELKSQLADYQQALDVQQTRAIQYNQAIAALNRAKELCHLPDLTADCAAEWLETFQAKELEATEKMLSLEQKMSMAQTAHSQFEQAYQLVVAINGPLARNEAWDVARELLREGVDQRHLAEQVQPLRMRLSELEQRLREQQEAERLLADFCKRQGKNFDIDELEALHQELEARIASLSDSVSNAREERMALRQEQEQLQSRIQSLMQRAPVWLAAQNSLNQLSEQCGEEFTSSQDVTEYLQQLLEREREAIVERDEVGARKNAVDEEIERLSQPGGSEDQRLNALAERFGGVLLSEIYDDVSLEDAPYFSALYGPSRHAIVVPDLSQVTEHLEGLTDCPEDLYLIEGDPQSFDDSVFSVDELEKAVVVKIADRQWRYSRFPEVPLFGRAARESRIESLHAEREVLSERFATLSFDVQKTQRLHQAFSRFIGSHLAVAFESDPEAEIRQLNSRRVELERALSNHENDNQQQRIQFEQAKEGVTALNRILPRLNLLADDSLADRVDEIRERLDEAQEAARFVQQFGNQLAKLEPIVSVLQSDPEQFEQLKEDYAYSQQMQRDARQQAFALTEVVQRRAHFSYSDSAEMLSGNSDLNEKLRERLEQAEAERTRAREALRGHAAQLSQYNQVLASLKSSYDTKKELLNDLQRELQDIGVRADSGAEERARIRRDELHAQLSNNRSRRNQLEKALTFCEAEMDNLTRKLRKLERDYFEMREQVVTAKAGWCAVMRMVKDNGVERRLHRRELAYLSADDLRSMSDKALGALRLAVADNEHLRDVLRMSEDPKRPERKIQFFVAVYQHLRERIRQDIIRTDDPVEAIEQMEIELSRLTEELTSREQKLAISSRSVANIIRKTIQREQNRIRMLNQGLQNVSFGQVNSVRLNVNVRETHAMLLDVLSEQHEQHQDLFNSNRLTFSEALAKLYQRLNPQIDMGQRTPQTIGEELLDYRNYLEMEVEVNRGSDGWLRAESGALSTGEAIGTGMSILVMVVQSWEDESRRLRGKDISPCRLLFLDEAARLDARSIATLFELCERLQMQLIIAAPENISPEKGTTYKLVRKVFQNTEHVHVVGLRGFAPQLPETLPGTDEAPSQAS",
  "data": [
    {"substance": "ParC (from UniProt P0AFI2)", "values": [
      {"measurement": "Kd", "result": 500, "unit": "nM"}
    ]}
  ]
}
